Test results as given in patent US20190153103A1 (AbbVie / Abbott, published 2019).
Changes are numbered by the printed parent chain. Where two headings read alike, the source gives them in different places. Values belong to the binder of their own block, whether it stands above or below them.

How the values were obtained:
[1] = target: T1, Cyno-his (cynomolgus); assay: Biacore
T1 construct: extracellular domain; soluble analyte of the Biacore runs; also called cSCRx91-his; cBMPR1B-CHis

[2] = target: T2, rat-his; assay: Biacore
T2 construct: soluble analyte of the Biacore runs; also called rSCRx91-his; rBMPR1B-CHis
T2 chain: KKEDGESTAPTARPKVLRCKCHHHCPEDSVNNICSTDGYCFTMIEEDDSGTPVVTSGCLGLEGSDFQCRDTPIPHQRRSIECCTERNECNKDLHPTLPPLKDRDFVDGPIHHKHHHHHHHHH

[3] = target: T3, hBMPR1B-His (human BMPR1B extracellular domain, residues K14 to R126, with C-terminal 9x-Histidine tag) (human, UniProt O00238 14-126); assay: Biacore
T3 construct: Residues K14-R126 are counted on the hBMPR1B ORF (NM_001203); The IgK signal peptide of the vector is left out; also called hBMPR1B-CHis; human BMPR1B-his
T3 sequence: T2 chain with A12P, T51L, D102N, K113R

[4] = target: T4, human BMPR1B overexpressed on the surface of HEK293T cells (N-terminal Asp-Lys epitope tag, … (human, UniProt O00238 14-502)); assay: flow cytometry
T4 construct: also called HEK293T cells overexpressing hBMPR1B; BMPR1B-expressing HEK293T cells

[5] = target: T5, rat BMPR1B overexpressed on the surface of HEK293T cells (N-terminal Asp-Lys epitope tag, … (rat, UniProt A0A8I6A0G0 62-550)); assay: flow cytometry
T5 construct: whole, on cells

[6] = target: T6, cynomolgus BMPR1B overexpressed on the surface of HEK293T cells (N-terminal Asp-Lys epitope tag, … (cynomolgus)); assay: flow cytometry
T6 construct: whole, on cells

[7] = target: T4, human BMPR1B overexpressed on the …; assay: cell-based or functional assay
[8] = target: T5, rat BMPR1B overexpressed on the surface …; assay: cell-based or functional assay
[9] = target: T6, cynomolgus BMPR1B overexpressed on the …; assay: cell-based or functional assay
[10] = target: T7, human BMPR1B coated on MSD plates (construct not stated) (human, UniProt O00238 14-126, limits assumed); assay: MSD ELISA, BMP2 blocked; design: concentration or dose not given beside the values
T7 construct: also called BMPR1B receptor
T7 sequence: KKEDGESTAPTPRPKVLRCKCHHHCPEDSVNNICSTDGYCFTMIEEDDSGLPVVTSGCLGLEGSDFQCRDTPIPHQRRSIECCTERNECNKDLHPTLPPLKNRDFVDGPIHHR

[11] = target: T7, human BMPR1B coated on MSD plates …; assay: MSD ELISA, BMP4 blocked; design: concentration or dose not given beside the values
[12] = target: T3, hBMPR1B-His (human BMPR1B extracellular …); assay: ELISA
[13] = target: T8, BMPR1A-Fc (recombinant protein used in the screen 1 ELISA) (human, UniProt P36894 24-152, limits assumed); assay: ELISA
T8 construct: also called human BMPR1A; not shown: Fc

[14] = target: T9, irrelevant Fc-tagged protein; assay: ELISA
T9 construct: ELISA control; also called irrelevant Fc construct

[15] = target: T10, hBMPR1B-Fc (human BMPR1B extracellular domain, residues K14 to R126, fused to human IgG2 Fc) (human, UniProt O00238 14-126); assay: ELISA
T10 construct: also called BMPR1B fused to human Fc fragment; not shown: human IgG2 Fc protein
T10 sequence: T7 sequence

[16] = target: T1, Cyno-his; assay: Biacore; remark: listed apart in the source
[17] = target: T2, rat-his; assay: Biacore
[18] = target: T3, hBMPR1B-His (human BMPR1B extracellular …); assay: Biacore; remark: listed apart in the source
[19] = target: T4, human BMPR1B overexpressed on the …; assay: flow cytometry; remark: listed apart in the source
[20] = target: T5, rat BMPR1B overexpressed on the surface …; assay: flow cytometry; remark: listed apart in the source
[21] = target: T4, human BMPR1B overexpressed on the …; assay: cell-based or functional assay; remark: listed apart in the source
[22] = target: T5, rat BMPR1B overexpressed on the surface …; assay: cell-based or functional assay; remark: listed apart in the source

T5 sequence (chain, as listed by the source): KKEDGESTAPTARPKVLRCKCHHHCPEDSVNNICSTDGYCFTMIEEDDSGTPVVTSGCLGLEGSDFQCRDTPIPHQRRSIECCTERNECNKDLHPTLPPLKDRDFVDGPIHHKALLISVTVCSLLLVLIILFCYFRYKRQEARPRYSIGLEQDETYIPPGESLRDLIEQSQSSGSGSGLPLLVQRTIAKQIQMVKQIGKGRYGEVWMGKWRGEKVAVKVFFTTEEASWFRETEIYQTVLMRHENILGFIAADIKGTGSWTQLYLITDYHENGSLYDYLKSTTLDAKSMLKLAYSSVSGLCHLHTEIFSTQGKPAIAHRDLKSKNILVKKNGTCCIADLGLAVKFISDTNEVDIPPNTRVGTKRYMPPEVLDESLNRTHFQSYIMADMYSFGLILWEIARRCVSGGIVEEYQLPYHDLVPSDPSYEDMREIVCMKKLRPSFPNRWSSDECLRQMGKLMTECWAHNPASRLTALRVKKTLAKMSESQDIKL
T8 sequence (P36894 24-152 limits assumed): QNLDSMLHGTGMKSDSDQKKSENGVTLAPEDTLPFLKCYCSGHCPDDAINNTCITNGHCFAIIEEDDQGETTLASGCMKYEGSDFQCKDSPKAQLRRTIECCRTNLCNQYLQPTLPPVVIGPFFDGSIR

B1: SC91.138 (antibody, V domains shown)
VH: QVQLQQPGAELVMPGASVKLSCKASGYTFTNYWMHWVKQRPGQGLEWIGEIDPSDVYTTYNQKFKDKATLTVDKSSSTAYMQLINLTSEDSAVYYCARSGWDYFDYWGQGTALTVSS
VL: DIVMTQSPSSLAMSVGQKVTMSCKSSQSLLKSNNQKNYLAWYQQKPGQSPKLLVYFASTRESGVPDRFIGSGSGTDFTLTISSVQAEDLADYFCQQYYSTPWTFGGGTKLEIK
Kd [1]: 0.937 nM
Kd [2]: 1.84 nM
Kd [3]: 0.658 nM
gMFI [4]: 24500
gMFI [5]: 9660
gMFI [6]: 16000
% live, Fab-saporin, 250pM [7]: 21%
% live, Fab-saporin, 250pM [8]: 37.3%
% live, Fab-saporin, 250pM [9]: 17.6%
% inhibition [10]: 10%
% inhibition [11]: 79%

B2: SC91.20 (antibody, V domains shown)
VH: QVQLQQPGAEVVRPGASLKLSCKASGYTFTSYWMQWIKQRPGQGLEWIGEIDPSDNYTMYNQKFKGKATLTVDTSSSTAYMQLSSLTSEDSAVYFCARFGFYVDYWGQGTTLTVSS
VL: DVVMTQTPLSLPVSLGDQASISCRSSQSLVHSTGNTYLHWYLQKPGQSPNLLIYKVSNRFSGVPDRFSGSGSGTDFTLKISRVEAEDLGVYFCSQSTHVPFTFGSGTKLEIK
ELISA [12]: 1.01
ELISA [13]: 0.116
ELISA [14]: 0.041
ELISA [15]: 0.462
Kd [16]: 2.3 nM
Kd [17]: 1.91 nM
Kd [18]: 0.934 nM
Flow cytometry MFI [19]: 7480
Flow cytometry MFI [20]: 5940
% live, Fab-saporin, 100pM [21]: 10.4%
% live, Fab-saporin, 100pM [22]: 18.2%

B4: SC91.129 (antibody, V domains shown)
VH: B2 VH with V11L, R13K, L18V, S31N, I37V, N56R, M59L, G66D, F95Y, F101Y
VL: B2 VL with V2A, T7S, N50K, S96T
notes: copies: 2 + 2
Kd [1]: 1.62 nM
Kd [2]: 0.561 nM
Kd [3]: 0.564 nM
gMFI [4]: 26900
gMFI [5]: 10200
gMFI [6]: 16000
% live, Fab-saporin, 250pM [7]: 23.1%
% live, Fab-saporin, 250pM [8]: 39.2%
% live, Fab-saporin, 250pM [9]: 18.5%
% inhibition [10]: 40%
% inhibition [11]: 83%

B5: SC91.149 (antibody, V domains shown)
VH: QVQLLQPGAELVKPGSSVKVSCKASGYTFTNYWMQWVKQRPGQGLEWIGEIDPSDTYTLYNQKFKGKATLTVDTSSSTAYMQLSSLTSEDSAVYYCARFGYYVDYWGQGTTLTVSS
VL: B2 VL with L38F, N50E, S68R
Kd [1]: 2 nM
Kd [2]: < 0.1 nM
Kd [3]: 1.03 nM
gMFI [4]: 27000
gMFI [5]: 10600
gMFI [6]: 15400
% live, Fab-saporin, 250pM [7]: 18.3%
% live, Fab-saporin, 250pM [8]: 29.1%
% live, Fab-saporin, 250pM [9]: 20.7%
% inhibition [10]: 47%
% inhibition [11]: 84%

B7: SC91.160 (antibody, V domains shown)
VH: QIQLVQSGPELKKPGETVKISCKASGYTFTTYGMNWVKQAPGKGLKWMGWINTYSGVPSSADDFKGRFAFSLETSASTAYLLINNLKNEDTATYFCARSELRNWYFDVWGTGTTVTVSS
VL: SFVMTQTPKFLLVSAGDRVTITCKASQNMGHDVAWYQQKPGQSPKLLIYSASNRYTGVPDRFTGSGYGTDFTFTISTVQAEDLAVYFCQQDYSSPFTFGSGTKLEMK
Kd [1]: 38.8 nM
binding result [2]: binds
Kd [3]: 3.12 nM
gMFI [4]: 27000
gMFI [6]: 15800
% live, Fab-saporin, 250pM [7]: 24.3%
% live, Fab-saporin, 250pM [8]: 77.9%
% live, Fab-saporin, 250pM [9]: 34.6%
% inhibition [10]: 47%
% inhibition [11]: 79%

B8: SC91.155 (antibody, V domains shown)
VH: B7 VH with T53S, S59A, S60Y, S75F, L82Q, K87R, N88D
VL: B7 VL with M29L, H31N, K45R, S50F, M106I
binding result [2]: binds
Kd [3]: 1.12 nM
gMFI [4]: 25300
gMFI [5]: 7690
gMFI [6]: 14600
% live, Fab-saporin, 250pM [7]: 29.3%
% live, Fab-saporin, 250pM [8]: 81.1%
% live, Fab-saporin, 250pM [9]: 45.1%
% inhibition [10]: 49%
% inhibition [11]: 79%

Now from value to binder:

Kd [1]: 4.47 nM
Kd [2]: 1.18 nM
Kd [3]: 1.96 nM
gMFI [4]: 24000
gMFI [5]: 9510
gMFI [6]: 15000
% live, Fab-saporin, 250pM [7]: 19.6%
% live, Fab-saporin, 250pM [8]: 34.1%
% live, Fab-saporin, 250pM [9]: 18%
% inhibition [10]: 51%
% inhibition [11]: 81%
B3: SC91.172 (antibody, V domains shown)
VH: B5 VH with L5Q, E10D, S16T, V20L, N31S, L59M
VL: B2 VL with P45A, N50K

Kd [1]: 5.58 nM
Kd [2]: 3.25 nM
Kd [3]: 2.86 nM
gMFI [4]: 25900
gMFI [5]: 9680
gMFI [6]: 14800
% live, Fab-saporin, 250pM [7]: 19.1%
% live, Fab-saporin, 250pM [8]: 36.7%
% live, Fab-saporin, 250pM [9]: 24.2%
% inhibition [10]: 37%
% inhibition [11]: 83%
B6: SC91.187 (antibody, V domains shown)
VH: B2 VH with A9P, V11F, R13K, L18V, M34V, I37V, M59L, K63N, F95Y
VL: B2 VL with D17E, N50K

Kd [3]: 6.67 nM
gMFI [4]: 25200
gMFI [5]: 3810
gMFI [6]: 9120
% live, Fab-saporin, 250pM [7]: 20.3%
% live, Fab-saporin, 250pM [8]: 87.1%
% live, Fab-saporin, 250pM [9]: 52.9%
% inhibition [10]: 36%
% inhibition [11]: 69%
B9: SC91.111 (antibody, V domains shown)
VH: B7 VH with F29L, S59A, S60Y, L82Q, L86F
VL: B7 VL with D32N, S50Y, M106I
notes: copies: 2 + 2

Kd [1]: 5.52 nM
Kd [2]: 5.35 nM
Kd [3]: 6.44 nM
gMFI [4]: 17300
gMFI [5]: 7510
gMFI [6]: 11500
% live, Fab-saporin, 250pM [7]: 24.9%
% live, Fab-saporin, 250pM [8]: 40.8%
% live, Fab-saporin, 250pM [9]: 34.7%
% inhibition [10]: 35%
% inhibition [11]: 65%
B10: SC91.119 (antibody, V domains shown)
VH: QVTLKESGPGILQPSQTLSLTCSFSGLSLSTPGMSVGWIRQPSGKGLEWLAHIWWNDDKSYNPALKSRLTISKDTSNNQVFLKIASVVTADTATYYCARGDRFAYWGQGTLVTVSA
VL: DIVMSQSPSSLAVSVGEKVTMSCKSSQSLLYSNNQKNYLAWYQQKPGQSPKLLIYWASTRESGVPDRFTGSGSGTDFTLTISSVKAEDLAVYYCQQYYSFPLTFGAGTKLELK

Kd [1]: < 0.1 nM
Kd [2]: < 2 nM
Kd [3]: 1.21 nM
gMFI [4]: 15800
gMFI [5]: 6220
gMFI [6]: 10900
% live, Fab-saporin, 250pM [7]: 20.5%
% live, Fab-saporin, 250pM [8]: 38.8%
% live, Fab-saporin, 250pM [9]: 25.4%
% inhibition [10]: 29%
% inhibition [11]: 79%
B11: SC91.146 (antibody, V domains shown)
VH: QVQLQQPGAELVKPGASVKLSCKASGYTFTSYWMHWVKQRPGQGLEWIGDIDPSDRYTNYNQKFKGKATLTVDTTSSTAYMQLSSLTSEDSAVYYCAISGWDYFDYWGQGTTLTVSS
VL: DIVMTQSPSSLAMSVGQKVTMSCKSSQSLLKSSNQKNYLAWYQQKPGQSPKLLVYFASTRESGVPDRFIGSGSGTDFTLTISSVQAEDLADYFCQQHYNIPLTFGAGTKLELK
